In paper PMC5526940 (Scientific Reports, 2017):

B1: Phaseolus vulgaris erythroagglutinin (natural protein)
chain: ASQTSFSFQRFNETNLILQRDATVSSKGQLRLTNVNDNGEPTLSSLGRAFYSAPIQIWDNTTGAVAASPTSFTFNIDVPNNSGPADGLAFVLLPVGSQPKDKGGLLGLFNNYKYDSNAHTVAVEFDTLYNVHWDPKPRHIGIDVNSIKSIKTTTWDFVKGENAEVLITYDSSTKLLVASLVYPSLKTSFIVSDTVDLKSVLPEWVIVGFTATTGITKGNVETNDILSWSFASKLSDGTTSEALNLANFALNQIL
modifications: TRITC label
notes: Phaseolus vulgaris erythroagglutinin; also called PHA-E; source: bought: EY Laboratories or Vector Laboratories (TRITC-labelled)
B2: chicken egg white ovomucoid (natural protein, UniProt P01005 25-210, looked up)
chain: AEVDCSRFPNATDKEGKDVLVCNKDLRPICGTDGVTYTNDCLLCAYSIEFGTNISKEHDGECKETVPMNCSSYANTTSEDGKVMVLCNRAFNPVCGTDGVTYDNECLLCAHKVEQGASVDKRHDGGCRKELAAVSVDCSEYPKPDCTAEDRPLCGSDNKTYGNKCNFCNAVVESNGTLTLSHFGKC
notes: Printed on the microarray at 0.5 mg/mL; also called OVM; source: bought: Sigma-Aldrich

Key:
Assay in all cases: peptide or protein array
Conditions in all cases: both partners purified
[1] = molecular target: T1, chicken egg white ovalbumin (chicken, UniProt P01012 1-386)
T1 construct: Printed on the microarray at 0.5 mg/mL; source: bought: Sigma-Aldrich
T1 sequence (looked up): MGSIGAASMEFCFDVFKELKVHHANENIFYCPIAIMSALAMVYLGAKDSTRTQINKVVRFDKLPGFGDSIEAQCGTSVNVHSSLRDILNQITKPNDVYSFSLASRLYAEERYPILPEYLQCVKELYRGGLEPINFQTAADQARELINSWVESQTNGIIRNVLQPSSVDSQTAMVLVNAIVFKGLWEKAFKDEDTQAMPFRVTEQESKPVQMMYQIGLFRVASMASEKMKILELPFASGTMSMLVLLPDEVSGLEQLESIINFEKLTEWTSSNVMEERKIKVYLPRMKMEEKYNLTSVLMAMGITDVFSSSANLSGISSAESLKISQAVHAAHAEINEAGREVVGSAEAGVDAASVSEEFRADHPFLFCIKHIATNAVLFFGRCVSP

[2] = molecular target: B1
[3] = molecular target: T2, Phaseolus vulgaris leucoagglutinin (Phaseolus vulgaris, UniProt P05087 21-272, TRITC label)
T2 construct: Phaseolus vulgaris leucoagglutinin; also called PHA-L; source: bought: EY Laboratories or Vector Laboratories (TRITC-labelled)
T2 sequence: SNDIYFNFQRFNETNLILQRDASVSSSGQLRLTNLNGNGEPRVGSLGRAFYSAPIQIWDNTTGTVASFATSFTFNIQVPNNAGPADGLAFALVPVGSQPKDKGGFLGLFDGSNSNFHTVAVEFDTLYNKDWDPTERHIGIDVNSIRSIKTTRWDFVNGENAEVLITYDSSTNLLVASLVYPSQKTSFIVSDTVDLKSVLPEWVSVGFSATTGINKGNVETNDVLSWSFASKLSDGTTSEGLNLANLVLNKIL

B1: binds [1].

B2: binds [2]; binds [3].
